In PMC12560177 (Journal of the American Chemical Society, 2025):
Square brackets hold non-standard residues; d marks the D form. Ends that are not written are not given here. Aib = CC(C)(N)C(=O)O

Legend:
[1] = target: glucagon-like peptide-1 receptor (UniProt P43220)
GLP-1R-Rluc8 = GLP-1R-Rluc8 (UniProt P43220)
[2] = overweight and obese individuals, 24-week Phase 2 clinical trial; cited from earlier work
GLP-1R [3] = target: T1, GLP-1R (Homo sapiens, UniProt P43220); assay: β-arrestin-2 recruitment to GLP-1R measured by BRET; format: cell-based; conditions: for Emax: HEK-293T, read-out: β-arrestin-2 Max response (% GLP-1)
T1 sequence (P43220 24-463, species assumed): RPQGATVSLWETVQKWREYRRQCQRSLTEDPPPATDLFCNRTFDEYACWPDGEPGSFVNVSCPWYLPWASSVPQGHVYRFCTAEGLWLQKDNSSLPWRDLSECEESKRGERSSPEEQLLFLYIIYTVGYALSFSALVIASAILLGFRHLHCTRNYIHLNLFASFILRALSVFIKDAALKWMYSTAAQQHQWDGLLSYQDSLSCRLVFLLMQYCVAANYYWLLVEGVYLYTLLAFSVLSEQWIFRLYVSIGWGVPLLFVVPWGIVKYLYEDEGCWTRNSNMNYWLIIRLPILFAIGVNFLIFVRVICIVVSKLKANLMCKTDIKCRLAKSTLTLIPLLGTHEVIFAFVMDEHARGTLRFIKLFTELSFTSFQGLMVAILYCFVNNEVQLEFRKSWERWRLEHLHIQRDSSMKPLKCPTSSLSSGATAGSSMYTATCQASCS

[4] = target: glucose-dependent insulinotropic polypeptide receptor (UniProt P48546)
Chain of glucose-dependent insulinotropic polypeptide receptor (P48546 22-466): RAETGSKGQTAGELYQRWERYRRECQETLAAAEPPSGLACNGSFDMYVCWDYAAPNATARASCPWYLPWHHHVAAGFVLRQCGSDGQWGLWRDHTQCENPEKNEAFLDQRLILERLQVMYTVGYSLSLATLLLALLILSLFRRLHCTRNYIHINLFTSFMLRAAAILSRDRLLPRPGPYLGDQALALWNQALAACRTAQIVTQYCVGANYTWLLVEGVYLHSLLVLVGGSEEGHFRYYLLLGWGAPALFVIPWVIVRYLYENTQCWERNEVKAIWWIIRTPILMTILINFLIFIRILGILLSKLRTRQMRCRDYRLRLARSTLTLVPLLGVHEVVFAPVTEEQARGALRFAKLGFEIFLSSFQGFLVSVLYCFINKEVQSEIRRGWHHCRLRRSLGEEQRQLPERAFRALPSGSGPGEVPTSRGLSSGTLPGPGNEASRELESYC

glucagon receptor = glucagon receptor (UniProt P47871)
GLP-1R [5] = target: T1, GLP-1R; conditions: vs GLP-1; stated as an observation, no reference given; cited from earlier work

Chain of GLP-1R-Rluc8 (P43220 24-463): as the sequence (P43220 24-463, species assumed) above
Chain of glucagon-like peptide-1 receptor (P43220 24-463): as the sequence (P43220 24-463, species assumed) above

Compound	EC50, cAMP-dependent CRE6x-luciferase reporter gene assay, HEK293 cells [1]	pEC50 of β-arrestin-2 recruitment to GLP-1R, BRET, HEK293T cells (GLP-1R-Rluc8)	Emax (GLP-1R [3])	other results
GEP44 (peptide)	0.64 pM	7.67	–	–
CC[C@H](C)[C@H](NC(=O)[C@H](Cc1ccccc1)NC(=O)[C@H](C)NC(=O)C(C)(C)NC(=O)[C@H](CCC(N)=O)NC(=O)[C@H](C)NC(=O)[C@H](CCCCNC(=O)COCCOCCNC(=O)CC[C@H](NC(=O)CCCCCCCCCCCCCCCCCCC(=O)O)C(=O)O)NC(=O)[C@H](CCCCN)NC(=O)[C@H](CC(=O)O)NC(=O)[C@H](CC(C)C)NC(=O)[C@](C)(CC(C)C)NC(=O)[C@@H](NC(=O)[C@H](CO)NC(=O)[C@H](Cc1ccc(O)cc1)NC(=O)[C@H](CC(=O)O)NC(=O)[C@H](CO)NC(=O)[C@@H](NC(=O)[C@H](Cc1ccccc1)NC(=O)[C@@H](NC(=O)CNC(=O)[C@H](CCC(N)=O)NC(=O)C(C)(C)NC(=O)[C@@H](N)Cc1ccc(O)cc1)[C@@H](C)O)[C@@H](C)O)[C@@H](C)CC)C(=O)N[C@@H](CCC(=O)O)C(=O)N[C@@H](Cc1ccc(O)cc1)C(=O)N[C@@H](CC(C)C)C(=O)N[C@@H](CC(C)C)C(=O)N[C@@H](CCC(=O)O)C(=O)NCC(=O)NCC(=O)N1CCC[C@H]1C(=O)N[C@@H](CO)C(=O)N[C@@H](CO)C(=O)NCC(=O)N[C@@H](C)C(=O)N1CCC[C@H]1C(=O)N1CCC[C@H]1C(=O)N1CCC[C@H]1C(=O)N[C@@H](CO)C(N)=O [Retatrutide]	–	–	58 ± 5%	maximal weight loss [2]: 24%
Retatrutide (peptide)	11 pM	7.62	–	EC50, cAMP-dependent CRE6x-luciferase reporter gene assay, HEK293 cells [4]: 2.2 pM; EC50, cAMP-dependent CRE6x-luciferase reporter gene assay, HEK293 cells (glucagon receptor): 8.2 pM
GLP-1(9–36 amide)	–	–	–	loss in receptor potency of the DPP4-truncated form (GLP-1R [5]): > 1,000 fold
H[Aib]QGTFTSDYSKYLDERAAQDFVQWLLDGGPSLRHYLNLVTRQRY-NH2 (C-terminus assumed) [TC0]	–	–	90 ± 5%	EC50 (GLP-1R [3]): 21400 pM
